Test results as given in patent US20090324622A1 (CELLDEX THERAPEUTICS, published 2009).
Values belong to the binder of their own block, whether it stands above or below them.

Experiments:
[1] = target: T1, human macrophage mannose receptor (human, UniProt P22897 19-1456); test: flow cytometry on cultured human DCs
T1 construct: whole, on cells; also called MR; MMR
T1 sequence (looked up): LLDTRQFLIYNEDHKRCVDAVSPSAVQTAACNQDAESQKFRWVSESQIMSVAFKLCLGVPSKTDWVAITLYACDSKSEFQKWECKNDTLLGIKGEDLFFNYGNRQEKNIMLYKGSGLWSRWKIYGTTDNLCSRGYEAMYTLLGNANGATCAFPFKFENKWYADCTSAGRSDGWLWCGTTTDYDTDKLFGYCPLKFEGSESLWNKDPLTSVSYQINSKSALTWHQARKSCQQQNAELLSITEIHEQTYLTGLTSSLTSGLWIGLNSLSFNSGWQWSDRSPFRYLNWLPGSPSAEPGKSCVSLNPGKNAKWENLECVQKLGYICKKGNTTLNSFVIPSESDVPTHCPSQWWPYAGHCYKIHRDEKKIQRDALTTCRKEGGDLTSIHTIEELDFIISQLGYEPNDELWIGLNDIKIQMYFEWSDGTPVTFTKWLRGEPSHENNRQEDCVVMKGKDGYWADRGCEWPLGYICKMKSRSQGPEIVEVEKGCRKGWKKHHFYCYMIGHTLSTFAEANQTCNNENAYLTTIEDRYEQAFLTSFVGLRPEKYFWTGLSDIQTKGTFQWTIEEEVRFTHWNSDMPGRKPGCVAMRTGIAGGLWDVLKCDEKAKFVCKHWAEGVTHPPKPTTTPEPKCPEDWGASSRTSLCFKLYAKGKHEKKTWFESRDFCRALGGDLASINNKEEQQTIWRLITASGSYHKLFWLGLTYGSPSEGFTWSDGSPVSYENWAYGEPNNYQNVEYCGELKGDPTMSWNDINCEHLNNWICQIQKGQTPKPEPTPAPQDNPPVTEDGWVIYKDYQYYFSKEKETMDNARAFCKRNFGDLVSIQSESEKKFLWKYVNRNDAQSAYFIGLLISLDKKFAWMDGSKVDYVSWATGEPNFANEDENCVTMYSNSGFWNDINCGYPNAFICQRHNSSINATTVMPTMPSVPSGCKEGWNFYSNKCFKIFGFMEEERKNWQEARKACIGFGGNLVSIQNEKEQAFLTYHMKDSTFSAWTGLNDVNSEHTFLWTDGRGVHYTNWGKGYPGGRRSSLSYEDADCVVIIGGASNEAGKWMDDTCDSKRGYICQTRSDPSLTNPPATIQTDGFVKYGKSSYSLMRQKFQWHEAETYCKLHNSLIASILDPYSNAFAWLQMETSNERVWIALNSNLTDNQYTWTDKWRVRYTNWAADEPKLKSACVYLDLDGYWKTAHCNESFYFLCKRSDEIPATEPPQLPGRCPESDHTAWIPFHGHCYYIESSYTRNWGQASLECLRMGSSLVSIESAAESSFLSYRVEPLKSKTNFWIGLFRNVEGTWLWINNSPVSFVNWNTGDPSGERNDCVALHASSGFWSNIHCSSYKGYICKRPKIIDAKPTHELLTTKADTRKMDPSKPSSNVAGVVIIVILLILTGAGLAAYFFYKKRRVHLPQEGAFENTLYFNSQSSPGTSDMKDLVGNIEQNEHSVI
Description: Monocyte-derived DCs were exposed either to B11 sfv-βhCG or βhCG-B11 in PBS-BSA buffer for 45 minutes at 37° C. and allowed to mature overnight in the presence of CD40L. Harvested DCs were then washed and stained with mouse anti-βhCG followed by goat anti-hu IgG (Fc)-PE conjugate. Stained cells were analyzed on a flow cytometer (BD-LSR). Approximately, 10,000 events were collected for each sample. Background autofluorescence and isotype matched antibody staining served as controls. Based on the mean fluorescence intensity (MFI) (data not shown), B11 sfv-βhCG binding to MR expressed on DC is similar to that of βhCG-B11.

[2] = target: T1, human macrophage mannose receptor; test: in situ staining of MR on human tissue cryosections (immunohistochemistry)
Description: Using the anti-MR antibody as a probe, in situ staining of MR on human dermal DCs and macrophages in section of various human tissues was examined. Human tissue cryosections were stained with anti-MR human antibody B11. DCs present in the dermal layer of the skin were clearly labeled (data not shown) with the B11 antibody. It is noted that there was binding to DCs in the dermal layer of skin. […] These studies have been repeated with the βhCG-B11 with identical results.

binding result [1]: binds
B1: βhCG-B11 construct (whole human anti-mannose receptor antibody B11 with βhCG fused to the CH3 end of the heavy chain) (antibody)
heavy: not shown
light: DIQMTQSPSSLSASVGDRVTITCRASQGISRWLAWYQQKPEKAPKSLIYAASSLQSGVPSRFSGSGSGTDFTLTISGLQPEDFATYYCQQYNSYPRTFGQGTKVEIK
notes: Antibody-antigen fusion expressed in CHO cells; also called B11-βhCG vaccine conjugate; B11-βhCG conjugate

binding result [2]: binds
B2: human monoclonal antibody B11 (anti-mannose receptor) (antibody, V domains shown)
VH: EVQLVQSGAEVKKPGESLRISCKGSGDSFTTYWIGWVRQMPGKGLEWMGIIYPGDSDTIYSPSFQGQVTISADKSISTAYLQWSSLKASDTAMYYCTRGDRGVDYWGQGTLVTVSS
VL: B1 light
notes: Fully human whole antibody with a kappa light chain; also called B11 mAb; anti-MR B11 HuMAb

binding result [1]: binds
B3: B11sfv-βhCG construct (single chain B11 antibody, VL and VH, with βhCG fused to the carboxy terminus) (scFv)
scFv: DIQMTQSPSSLSASVGDRVTITCRASQGISRWLAWYQQKPEKAPKSLIYAASSLQSGVPSRFSGSGSGTDFTLTISGLQPEDFATYYCQQYNSYPRTFGQGTKVEIKGGGGSGGGGSGGGGSEVQLVQSGAEVKKPGESLRISCKGSGDSFTTYWIGWVRQMPGKGLEWMGIIYPGDSDTIYSPSFQGQVTISADKSISTAYLQWSSLKASDTAMYYCTRGDRGVDYWGQGTLVTVSSGSTGGGGSSSKEPLRPRCRPINATLAVEKEGCPVCITVNTTICAGYCPTMTRVLQGVLPALPQVVCNYRDVRFESIRLPGCPRGVNPVVSYAVALSCQCALCRRSTTDCGGPKDHPLTCDDPRFQDSSSSKAPPPSLPSPSRLPGPSDTPILPQ
notes: also called B11 scfv-βhCG; pB11sfv-βhCG
